Measurements as given in patent EP4617282A1 (Institute Of Pathogen Biology, Chinese Academy Of Medical …, dated 2024).

B1: lipopeptide LP-101 (peptide)
peptide: Ac-EIEELEKKIEELLKKAEEQQKKNEEELKKLEK-NH2
modifications: not fully specified (residue 32)
B2: lipopeptide LP-98 (peptide)
peptide: Ac-YEQKIEELLKKAEEQQKKNEEELKKLEK-NH2
modifications: not fully specified (residue 28)
B3: lipopeptide LP-104 (peptide)
peptide: Ac-WEEWEKKIEELEKKIEELLKKAEEQQKKNEEELKKLEK-NH2
modifications: not fully specified (residue 38)

Legend:
[1] = molecular target: HIV-1NL4-3 Env (envelope glycoprotein of the HIV-1NL4-3 pseudovirus) (HIV-1 (strain NL4-3)); test: cell-based or functional assay
[2] = molecular target: HIV-1JRFL Env (envelope glycoprotein of the HIV-1JRFL pseudovirus) (HIV-1 (strain JRFL)); test: cell-based or functional assay

Row | Binder | average IC50, inhibition of pseudovirus infection of TZM-bl cells (luciferase) [1] | average IC50, inhibition of pseudovirus infection of TZM-bl cells (luciferase) [2] | IC50, inhibition of pseudovirus infection of TZM-bl cells (luciferase) [1] | fold reduction of antiviral activity as compared to lipopeptide LP-101 [1] | IC50, inhibition of pseudovirus infection of TZM-bl cells (luciferase) [2] | fold reduction of antiviral activity as compared to lipopeptide LP-101 [2]
1 | B1 | 0.46 pM | 2.26 pM | – | – | – | –
2 | B2 | 1.07 pM | 2.58 pM | – | – | – | –
3 | B3 | – | – | 14.5 pM | ~32 fold | 60.2 pM | ~27 fold
